Earlier results as cited in paper PMC6005205.

Target: ACKR3 (Homo sapiens) (UniProt P25106)
UniProt P25106, sequence (P25106 whole entry): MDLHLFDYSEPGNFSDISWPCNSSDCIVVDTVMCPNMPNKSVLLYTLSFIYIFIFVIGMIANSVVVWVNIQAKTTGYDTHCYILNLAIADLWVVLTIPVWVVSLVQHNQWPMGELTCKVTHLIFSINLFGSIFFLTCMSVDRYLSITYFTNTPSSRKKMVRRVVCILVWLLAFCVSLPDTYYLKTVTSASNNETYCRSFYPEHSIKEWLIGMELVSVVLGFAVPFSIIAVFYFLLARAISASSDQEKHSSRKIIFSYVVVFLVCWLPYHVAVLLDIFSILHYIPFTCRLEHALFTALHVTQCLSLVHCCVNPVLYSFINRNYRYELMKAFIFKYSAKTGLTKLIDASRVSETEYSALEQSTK

adrenomedullin (from UniProt P35318)
Kd: 0.2 nM
